Results reported in the supplement of paper PMC11316812.
± gives the standard deviation of the averaged measurements.

Experiments:
hTERT-HMEC = assay: percentage of EdU-negative (G0-arrested) nuclei per well, 72 h; higher = more G0 arrest; conditions: reference: sequence is the full UniProt precursor, the tested protein was the secreted form or ectodomain
MCF7 = assay: as above; conditions: reference: sequence is the full UniProt precursor, the tested protein was the secreted form or ectodomain
[1] = protein concentration 0.02103 µM
[2] = protein concentration 0.2103 µM
[3] = protein concentration 0.0082175 µM
[4] = protein concentration 0.01138 µM
[5] = protein concentration 0.082175 µM
[6] = protein concentration 0.1138 µM
[7] = protein concentration 0.03125 µM
[8] = protein concentration 0.3125 µM
[9] = protein concentration 0.0284075 µM
[10] = protein concentration 0.284075 µM
[11] = protein concentration 0.0225 µM
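Also: secreted proteins added to cultured cells, EdU pulse at the end, nuclei found by Hoechst imaging, EdU status from nuclear versus surrounding ring intensity ratio, PBS as neutral control.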

MRVAGAAKLVVAVAVFLLTFYVISQVFEIKMDASLGNLFARSALDTAARSTKPPRYKCGISKACPEKHFAFKMASGAANVVGPKICLEDNVLMSGVKNNVGRGINVALANGKTGEVLDTKYFDMWGGDVAPFIEFLKAIQDGTIVLMGTYDDGATKLNDEARRLIADLGSTSITNLGFRDNWVFCGGKGIKTKSPFEQHIKNNKDTNKYEGWPEVVEMEGCIPQKQD
percentage of EdU-negative (hTERT-HMEC; [1]): 4.78 ± 1.5% | percentage of EdU-negative (hTERT-HMEC; [2]): 5.17 ± 1.7% | percentage of EdU-negative (MCF7; [1]): 25.3 ± 0.58% | percentage of EdU-negative (MCF7; [2]): 24.9 ± 1.8%

MRVLGGRCGALLACLLLVLPVSEANFLSKQQASQVLVRKRRANSLLEETKQGNLERECIEELCNKEEAREVFENDPETDYFYPKYLVCLRSFQTGLFTAARQSTNAYPDLRSCVNAIPDQCSPLPCNEDGYMSCKDGKASFTCTCKPGWQGEKCEFDINECKDPSNINGGCSQICDNTPGSYHCSCKNGFVMLSNKKDCKDVDECSLKPSICGTAVCKNIPGDFECECPEGYRYNLKSKSCEDIDECSENMCAQLCVNYPGGYTCYCDGKKGFKLAQDQKSCEVVSVCLPLNLDTKYELLYLAEQFAGVVLYLKFRLPEISRFSAEFDFRTYDSEGVILYAESIDHSAWLLIALRGGKIEVQLKNEHTSKITTGGDVINNGLWNMVSVEELEHSISIKIAKEAVMDINKPGPLFKPENGLLETKVYFAGFPRKVESELIKPINPRLDGCIRSWNLMKQGASGIKEIIQEKQNKHCLVTVEKGSYYPGSGIAQFHIDYNNVSSAEGWHVNVTLNIRPSTGTGVMLALVSGNNTVPFAVSLVDSTSEKSQDILLSVENTVIYRIQALSLCSDQQSHLEFRVNRNNLELSTPLKIETISHEDLQRQLAVLDKAMKAKVATYLGGLPDVPFSATPVNAFYNGCMEVNINGVQLDLDEAISKHNDIRAHSCPSVWKKTKNS
percentage of EdU-negative (hTERT-HMEC; [3]): 4.46 ± 0.51% | percentage of EdU-negative (hTERT-HMEC; [4]): 4.81 ± 0.94% | percentage of EdU-negative (hTERT-HMEC; [5]): 7.16 ± 1.3% | percentage of EdU-negative (hTERT-HMEC; [6]): 5.79 ± 0.86% | percentage of EdU-negative (MCF7; [3]): 25.6 ± 0.65% | percentage of EdU-negative (MCF7; [4]): 28.4 ± 1.6% | percentage of EdU-negative (MCF7; [5]): 27.3 ± 4.3% | percentage of EdU-negative (MCF7; [6]): 28.2 ± 3.1%

MRVLLAALGLLFLGALRAFPQDRPFEDTCHGNPSHYYDKAVRRCCYRCPMGLFPTQQCPQRPTDCRKQCEPDYYLDEADRCTACVTCSRDDLVEKTPCAWNSSRVCECRPGMFCSTSAVNSCARCFFHSVCPAGMIVKFPGTAQKNTVCEPASPGVSPACASPENCKEPSSGTIPQAKPTPVSPATSSASTMPVRGGTRLAQEAASKLTRAPDSPSSVGRPSSDPGLSPTQPCPEGSGDCRKQCEPDYYLDEAGRCTACVSCSRDDLVEKTPCAWNSSRTCECRPGMICATSATNSCARCVPYPICAAETVTKPQDMAEKDTTFEAPPLGTQPDCNPTPENGEAPASTSPTQSLLVDSQASKTLPIPTSAPVALSSTGKPVLDAGPVLFWVILVLVVVVGSSAFLLCHRRACRKRIRQKLHLCYPVQTSQPKLELVDSRPRRSSTQLRSGASVTEPVAEERGLMSQPLMETCHSVGAAYLESLPLQDASPAGGPSSPRDLPEPRVSTEHTNNKIEKIYIMKADTVIVGTVKAELPEGRGLAGPAEPELEEELEADHTPHYPEQETEPPLGSCSDVMLSVEEEGKEDPLPTAASGK
percentage of EdU-negative (hTERT-HMEC; [7]): 5.63 ± 0.33% | percentage of EdU-negative (hTERT-HMEC; [8]): 5.66 ± 0.2% | percentage of EdU-negative (MCF7; [7]): 24 ± 2.9% | percentage of EdU-negative (MCF7; [8]): 24 ± 0.5%

MRVSGVLRLLALIFAIVTTWMFIRSYMSFSMKTIRLPRWLAASPTKEIQVKKYKCGLIKPCPANYFAFKICSGAANVVGPTMCFEDRMIMSPVKNNVGRGLNIALVNGTTGAVLGQKAFDMYSGDVMHLVKFLKEIPGGALVLVASYDDPGTKMNDESRKLFSDLGSSYAKQLGFRDSWVFIGAKDLRGKSPFEQFLKNSPDTNKYEGWPELLEMEGCMPPKPF [Q96BQ1]
percentage of EdU-negative (hTERT-HMEC; [9]): 5 ± 0.84% | percentage of EdU-negative (hTERT-HMEC; [10]): 6.345 ± 0.041% | percentage of EdU-negative (MCF7; [9]): 27.2 ± 0.94% | percentage of EdU-negative (MCF7; [10]): 26.6 ± 1.5%

MRWCLLLIWAQGLRQAPLASGMMTGTIETTGNISAEKGGSIILQCHLSSTTAQVTQVNWEQQDQLLAICNADLGWHISPSFKDRVAPGPGLGLTLQSLTVNDTGEYFCIYHTYPDGTYTGRIFLEVLESSVAEHGARFQIPLLGAMAATLVVICTAVIVVVALTRKKKALRIHSVEGDLRRKSAGQEEWSPSAPSPPGSCVQAEAAPAGLCGEQRGEDCAELHDYFNVLSYRSLGNCSFFTETG [Q495A1]
percentage of EdU-negative (hTERT-HMEC; [11]): 4.33 ± 0.49% | percentage of EdU-negative (hTERT-HMEC; protein concentration 0.225 µM): 5.59 ± 0.47% | percentage of EdU-negative (MCF7; [11]): 23.6 ± 1.6% | percentage of EdU-negative (MCF7; protein concentration 0.225 µM): 24.1 ± 1.1%

MRWILFIGALIGSSICGQEKFFGDQVLRINVRNGDEISKLSQLVNSNNLKLNFWKSPSSFNRPVDVLVPSVSLQAFKSFLRSQGLEYAVTIEDLQALLDNEDDEMQHNEGQERSSNNFNYGAYHSLEAIYHEMDNIAADFPDLARRVKIGHSFENRPMYVLKFSTGKGVRRPAVWLNAGIHSREWISQATAIWTARKIVSDYQRDPAITSILEKMDIFLLPVANPDGYVYTQTQNRLWRKTRSRNPGSSCIGADPNRNWNASFAGKGASDNPCSEVYHGPHANSEVEVKSVVDFIQKHGNFKGFIDLHSYSQLLMYPYGYSVKKAPDAEELDKVARLAAKALASVSGTEYQVGPTCTTVYPASGSSIDWAYDNGIKFAFTFELRDTGTYGFLLPANQIIPTAEETWLGLKTIMEHVRDNLY [Q9UI42]
percentage of EdU-negative (hTERT-HMEC; [11]): 5.99 ± 0.71% | percentage of EdU-negative (hTERT-HMEC; protein concentration 0.225 µM): 5.12 ± 0.8% | percentage of EdU-negative (MCF7; [11]): 26.3 ± 1.7% | percentage of EdU-negative (MCF7; protein concentration 0.225 µM): 29.1 ± 1.7%

MRWRTILLQYCFLLITCLLTALEAVPIDIDKTKVQNIHPVESAKIEPPDTGLYYDEYLKQVIDVLETDKHFREKLQKADIEEIKSGRLSKELDLVSHHVRTKLDELKRQEVGRLRMLIKAKLDSLQDIGMDHQALLKQFDHLNHLNPDKFESTDLDMLIKAATSDLEHYDKTRHEEFKKYEMMKEHERREYLKTLNEEKRKEEESKFEEMKKKHENHPKVNHPGSKDQLKEVWEETDGLDPNDFDPKTFFKLHDVNSDGFLDEQELEALFTKELEKVYDPKNEEDDMVEMEEERLRMREHVMNEVDTNKDRLVTLEEFLKATEKKEFLEPDSWETLDQQQFFTEEELKEYENIIALQENELKKKADELQKQKEELQRQHDQLEAQKLEYHQVIQQMEQKKLQQGIPPSGPAGELKFEPHI
percentage of EdU-negative (hTERT-HMEC; [11]): 5.36 ± 0.7% | percentage of EdU-negative (hTERT-HMEC; protein concentration 0.225 µM): 5.32 ± 1.9% | percentage of EdU-negative (MCF7; [11]): 24 ± 0.28% | percentage of EdU-negative (MCF7; protein concentration 0.225 µM): 26 ± 1.5%
